Data published in paper doi:10.1101/2025.03.24.644971.
Changes are numbered by the printed parent chain.

Tests used:
Assay in all cases: EMSA
[1] = test system: Calb_Rsc1 213-599 BAH mutant (Candida albicans); details: 50 mM Tris-HCl pH 7.5, 100 mM NaCl, 2.5% glycerol, 0.1 mM EDTA, 1 mM DTT
[2] = test system: Calb_Rsc1 213-599 WT (AT-hook-BD2-BAH) (Candida albicans); details: 50 mM Tris-HCl pH 7.5, 100 mM NaCl, 2.5% glycerol, 0.1 mM EDTA, 1 mM DTT
[3] = biological target: Scer_Rsc2 261-636 basic-surface mutant (Saccharomyces cerevisiae, UniProt Q06488 261-636, K286E;K289E;K290E)
Scer_Rsc1 221-596 WT = biological target: T1, Scer_Rsc1 221-596 WT (Saccharomyces cerevisiae, UniProt P53236 221-596)
T1 sequence: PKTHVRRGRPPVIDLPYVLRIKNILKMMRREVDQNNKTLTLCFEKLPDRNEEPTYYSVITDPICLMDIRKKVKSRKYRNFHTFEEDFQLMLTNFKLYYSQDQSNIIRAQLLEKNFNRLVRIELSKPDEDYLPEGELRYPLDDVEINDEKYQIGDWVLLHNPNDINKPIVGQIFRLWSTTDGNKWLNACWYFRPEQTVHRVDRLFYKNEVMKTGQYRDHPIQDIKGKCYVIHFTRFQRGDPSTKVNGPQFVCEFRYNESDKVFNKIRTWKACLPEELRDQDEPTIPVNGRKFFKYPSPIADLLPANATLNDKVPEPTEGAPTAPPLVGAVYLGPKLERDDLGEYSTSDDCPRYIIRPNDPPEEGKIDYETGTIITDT

[4] = biological target: T2, Scer_Rsc1 221-596 basic-surface mutant (Saccharomyces cerevisiae, UniProt P53236 221-596, K246E;R249E;R250E)
T2 sequence: T1 sequence with K26E, R29E, R30E

Scer_Rsc2 261-636 WT = Scer_Rsc2 261-636 WT (Saccharomyces cerevisiae, UniProt Q06488 261-636)
Sequence of Scer_Rsc2 261-636 WT (Q06488 261-636): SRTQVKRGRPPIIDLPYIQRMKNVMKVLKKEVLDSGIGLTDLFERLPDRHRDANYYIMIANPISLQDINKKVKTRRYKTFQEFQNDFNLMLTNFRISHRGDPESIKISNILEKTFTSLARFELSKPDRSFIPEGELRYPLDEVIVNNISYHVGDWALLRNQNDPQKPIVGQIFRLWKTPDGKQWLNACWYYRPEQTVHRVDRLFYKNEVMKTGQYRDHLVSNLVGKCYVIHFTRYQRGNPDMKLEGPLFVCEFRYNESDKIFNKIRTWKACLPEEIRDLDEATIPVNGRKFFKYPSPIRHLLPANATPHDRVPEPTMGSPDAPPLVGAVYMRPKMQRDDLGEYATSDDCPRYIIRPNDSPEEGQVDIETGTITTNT

Sequence of Scer_Rsc2 261-636 basic-surface mutant (Q06488 261-636 K286E/K289E/K290E): as the sequence (Q06488 261-636) above, with K26E, K29E, K30E counted along it

In the case of “ATCAGGTCGCTGTTCAATACATGCACAGGATGTATATATCTGACACGTGCCTGGAGACTAGGGAGTAATCCCCTTGGCGGTTAAAACGCGGGGGACAGCGCGTACGTGCGTTTAAGCGGTGCTAGAGCTGTCTACGACCAATTGAGCGGCCTCGGCACCGGGATTCTCCAGGGCGGCCGCGTATAGGGTCCATCGAT (double strand) [197bp 601 DNA]”, the Kd [1] is reported as 11.3 µM and the Kd [2] is reported as 1.9 µM.

“ATCGATGTATATATCTGACACGTGCCTGGAGACTAGGGAGTAATCCCCTTGGCGGTTAAAACGCGGGGGACAGCGCGTACGTGCGTTTAAGCGGTGCTAGAGCTGTCTACGACCAATTGAGCGGCCTCGGCACCGGGATTCTGAT (double strand) [145bp 601 DNA]” showed a Kd [1] of over 15 µM and a Kd [2] of 1.9 µM.

Work on “GCATCAGTCTTATAGGAAGAAAAACAAAAAGTCCATCGATCTAG (double strand) [A-rich (polyA) probe]” yielded a Kd [2] of 7.4 µM.

B1: A-rich (polyA) probe (dsDNA)
DNA 1: GCATCAGTCTTATAGGAAGAAAAACAAAAAGTCCATCGATCTAG
DNA 2: CTAGATCGATGGACTTTTTGTTTTTCTTCCTATAAGACTGATGC
With B1 the binding result [3] was “no binding”, the Kd (Scer_Rsc1 221-596 WT) was 3.7 µM and the binding result [4] was “no binding”. The Kd (Scer_Rsc2 261-636 WT) was 2.9 µM.
